Source: patent EP3717020B1

Molecular target: endogenous RAS proteins in HeLa cells
Assay: cell-based or functional assay

Substance | EC50 of loss of RAS proteins in HeLa cells (anti-RAS immunoblot) [pM] | potency of RAS loss in HeLa cells against RRSP-dta-dtB [fold] | EC50 of loss of total RAS proteins in HeLa cells (24 h, anti-RAS immunoblot) [pM]
RRSP-Δdta-dtB (enzyme) | 1 | 300 | 
RRSP-dta-dtB (enzyme) |  |  | 250
RRSP-APD-Δdta-dtB (enzyme) | 1 | 300 | 
